Consider 1 protein from the PETadex activity labels (doi:10.3390/polym4010617).

Substrate in data set [1]: PLA
The experiment in a line: Proxy for plastic degradation [HPLC-UV]. To be noted: pH 7; 37 °C.

Substrate in another data set: pNP-C2
Nature of the data set: Proxy for plastic degradation [Specific activity]. To be noted: pH 7.

Substrate in another data set: pNPB
Nature of the data set: Proxy for plastic degradation [Specific activity]. The settings on record: pH 7.

Substrate in data set [2]: PLA
The experiment in a line: Proxy for plastic degradation [Released monomer concentration (HPLC/LC-MS) (LA )]. To be noted: pH 7.

A short description of data set [3]: Proxy for plastic degradation [Released monomer concentration (HPLC/LC-MS) (BA)] (mmol/mol of enzyme). To be noted: pH 7.
The nature of data set [4]: Proxy for plastic degradation [Released monomer concentration (HPLC/LC-MS) (TA)] (mmol/mol of enzyme). The settings on record: pH 7.
Substrate in data set [5]: PET
Described as above. To be noted: pH 7.

Data set [6] is described as follows: Proxy for plastic degradation [Released monomer concentration (HPLC/LC-MS) (HEB)] (mmol/mol of enzyme). To be noted: pH 7.
A short description of data set [7]: Proxy for plastic degradation [Released monomer concentration (HPLC/LC-MS) (MHET)] (mmol/mol of enzyme). To be noted: pH 7.
Substrate in data set [8]: PET
Described as above. The settings on record: pH 7.

B1: unnamed (protein)
chain: MANPYERGPNPTNSSIEALRGPFRVDEERVSRLQARGFGGGTIYYPTDNNTFGAVAISPGYTGTQSSISWLGERLASHGFVVMTIDTNTTLDQPDSRASQLDAALDYMVEDSSYSVRNRIDSSRLAAMGHSMGGGGTLRLAERRPDLQAAIPLTPWHTDKTWGSVRVPTLIIGAENDTIASVRSHSEPFYNSLPGSLDKAYLELDGASHFAPNLSNTTIAKYSISWLKRFVDDDTRYTQFLCPGPSTGWGSDVEEYRSTCPF
Consider B1, for which the “Proxy for plastic degradation” value with PLA [1] was 14.5 µM; with pNP-C2, 550 U/mg; with pNPB, 500 U/mg; in the data set with PLA [2], 14.5 µM; in [3] it was 58; in data set [4], 18. For the same protein, the “Proxy for plastic degradation” value in the data set with PET [5] amounted to 21.5; in data set [6] it was 53; in data set [7], 35; in the data set with PET [8] it was 19.8.
